Experimental data published in article PMC7673989 (2020).

Legend:
KETWV peptide [1] = molecular target: T1, KETWV peptide (synthetic construct); assay: ITC, 21 °C
T1 chain: KETWV

KETWV peptide [2] = molecular target: T1, KETWV peptide; assay: intrinsic tryptophan fluorescence quenching, 21 °C

B1: PSD-95 PDZ3 302-403 (protein)
chain: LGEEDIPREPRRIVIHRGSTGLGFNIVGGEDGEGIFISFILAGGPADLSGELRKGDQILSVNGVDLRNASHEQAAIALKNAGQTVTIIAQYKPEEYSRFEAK
Q: Which Kd (KETWV peptide [1]) does the source give for B1 here?
A: The Kd was 25.2 µM.

Q: What about the Kd (KETWV peptide [2]) of the same binder?
A: Its Kd is 24.6 µM.
